{
  "source": "patent US20130189218A1",
  "about": "“PHARMACEUTICAL FORMULATIONS FOR FUMAGILLIN DERIVATIVE-PHF CONJUGATES” (Mersana Therapeutics, Inc., priority 2011, published 2013)",
  "assay_type_in_all_cases": "physicochemical",
  "key": {"[1]": {"assay": "Solution appearance of Composition C batches", "protocol": "Physical properties of select Composition C batches were measured as described in the Methods section."}, "[2]": {"assay": "Peak molecular weight at ~3 and ~60 mg/ml (concentration dependence)", "protocol": "(§1) The molecular weight distributions of Composition C conjugate, PHF and PHF-GA were measured by high performance size exclusion chromatography (HPSEC) with RI detection. Separation was carried out on a GE Healthcare Superose 6 column using 50 mM pH=7.4 phosphate 0.9% NaCl as an fluent. Dextran standards (American Polymer Standards Corporation) were used to establish a calibration curve of known molecular weight vs. retention time. Molecular weight distributions (weight average molecular weight (“Mw”), D90, D50, D10) were calculated based on the polysaccharide standard curve.\nPeak molecular weight values were measured for Composition C batches in solution at ˜3 mg/ml and at ˜60 mg/ml."}, "[3]": {"assay": "HPSEC trace / molecular weight distribution of different Compound D loading conjugates", "protocol": "as §1\nComposition C batches were analyzed by high performance size exclusion chromatography. […] Batches B and E have the additional desirable property of relatively high Compound D loading; approximately 3-fold higher than Batches C and F."}},
  "data": [
    {"smiles": "CO[C@H]1[C@H](C2(C)OC2CC=C(C)C)[C@]2(CC[C@H]1OC(=O)NCc1ccc(NC(=O)CCCC(=O)O)cc1)CO2", "note": "(some centres unmarked) [Compound D]", "values": [
      {"measurement": "Solution Appearance", "setting": "[1]", "result": "Very slight"},
      {"measurement": "% Change", "setting": "[2]; Mp at ~60 mg/ml vs ~3 mg/ml", "result": "+58%"},
      {"measurement": "Mp at ~3 mg/ml", "setting": "[2]; ~3 mg/ml in solution", "result": 57.8, "unit": "kDa"},
      {"measurement": "Mp at ~60 mg/ml", "setting": "[2]; ~60 mg/ml in solution", "result": 91.2, "unit": "kDa"},
      {"measurement": "SEC Trace", "setting": "[3]", "result": "2 peaks (high"}
    ]}
  ]
}
